Source: paper PMC4831847

Tested on: hPBV RdRP WT (human picobirnavirus strain Hy005102)
Experiment: EMSA
Conditions: 50 mM Tris-HCl pH 7.5, 50 mM KCl, 1 mM NaN3, 5 mM beta-mercaptoethanol, 10% glycerol, 1 nM 32P-RNA, 30 min at room temperature, 15% native PAGE in ice bath

Substance CACACACACACACACACACA [CA repeat 20-mer] has a binding signal (fold lower affinity than 5'-(+)UTR) of 10.

With GGACUAACAGUCCCAACUGC [PBV 3'-(+)UTR] the binding signal (fold lower affinity than 5'-(+)UTR) was 10.

GUAAAAUUUUCGAAUUUUAU [PBV 5'-(+)UTR] was tested, and the binding signal (scale: fold higher affinity than 3'-(+)UTR or CA repeat) was 10.

PBV2+ full-length gave a binding signal (fold stronger than PBV2+(Δ1-645)) of 10.

In the case of PBV2+(Δ1-645), the binding signal (fold weaker than full-length PBV2+) is reported as 10.
